Consider four molecules from article PMC4003248 (The Journal of Cell Biology, 2014).

Experiment [1] has as its target RILP (Rab7-interacting lysosomal protein) 1-185 (UniProt Q96NA2). In words: GST-RILP 1-185 pull-down from cell lysate. Particulars: reference: GFP-LIC1 wild type; sites T213.
Experiment [2] deals with adenovirus serotype 5 hexon capsid subunit (Ad5 (adenovirus serotype 5), UniProt P04133 1-952). Description: pull-down.
Sequence of adenovirus serotype 5 hexon capsid subunit (P04133 whole entry): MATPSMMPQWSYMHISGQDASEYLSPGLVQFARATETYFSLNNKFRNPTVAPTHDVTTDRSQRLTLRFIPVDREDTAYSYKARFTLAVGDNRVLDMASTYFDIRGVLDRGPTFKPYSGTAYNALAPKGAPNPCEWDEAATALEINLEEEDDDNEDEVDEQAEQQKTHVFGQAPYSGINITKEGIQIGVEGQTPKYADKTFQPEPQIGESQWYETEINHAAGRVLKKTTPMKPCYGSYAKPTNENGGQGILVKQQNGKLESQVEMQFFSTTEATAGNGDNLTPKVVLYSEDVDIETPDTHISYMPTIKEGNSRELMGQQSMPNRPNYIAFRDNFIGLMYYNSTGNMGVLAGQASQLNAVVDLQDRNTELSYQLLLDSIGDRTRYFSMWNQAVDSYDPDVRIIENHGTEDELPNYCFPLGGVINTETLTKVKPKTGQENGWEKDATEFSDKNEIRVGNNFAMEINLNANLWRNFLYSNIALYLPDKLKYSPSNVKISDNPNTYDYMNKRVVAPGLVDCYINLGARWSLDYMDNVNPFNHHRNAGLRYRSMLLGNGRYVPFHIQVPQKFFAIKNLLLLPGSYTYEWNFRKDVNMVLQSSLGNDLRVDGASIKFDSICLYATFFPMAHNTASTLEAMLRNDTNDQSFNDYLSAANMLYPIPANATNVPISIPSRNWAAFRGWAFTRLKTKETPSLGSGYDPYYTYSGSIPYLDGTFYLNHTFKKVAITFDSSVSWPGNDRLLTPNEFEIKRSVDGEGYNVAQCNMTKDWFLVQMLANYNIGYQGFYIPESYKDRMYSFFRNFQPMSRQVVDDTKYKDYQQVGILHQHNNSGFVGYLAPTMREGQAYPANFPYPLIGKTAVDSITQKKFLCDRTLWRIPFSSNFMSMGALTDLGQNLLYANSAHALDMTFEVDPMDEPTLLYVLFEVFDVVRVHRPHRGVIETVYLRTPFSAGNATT

Regarding “dynein light intermediate chain 1 (LIC1) (from UniProt Q9QXU8) GFP-LIC1-T213A”, the “binding against the reference” value in experiment [1] was “stronger”.

B1: bacterially expressed full-length IC1A phosphorylated with PKA catalytic subunit (natural protein, rat, UniProt Q63100 1-643, looked up)
chain: MSDKSDLKAELERKKQRLAQIREEKKRKEEERKKKEADMQQKKEPVPDDSDLDRKRRETEALLQSIGISPEPPLVQPLHFLTWDTCYFHYLVPTPMSPSSKSVSTPSEAGSQDDLGPLTRTLQWDTDPSVLQLQSDSELGRRLNKLGVSKVTQVDFLPREVVSYSKETQTPLATHQSEEDEEDEEMVEPKVGHDSELENQDKKQETKEAPPRELTEEEKQQILHSEEFLIFFDRTIRVIERALAEDSDIFFDYSGRELEEKDGDVQAGANLSFNRQFYDEHWSKHRVVTCMDWSLQYPELMVASYSNNEDAPHEPDGVALVWNMKFKKTTPEYVFHCQSSVMSVCFARFHPNLVVGGTYSGQIVLWDNRSHRRTPVQRTPLSAAAHTHPVYCVNVVGTQNAHNLITVSTDGKMCSWSLDMLSTPQESMELVYNKSKPVAVTGMAFPTGDVNNFVVGSEEGTVYTACRHGSKAGIGEVFEGHQGPVTGINCHMAVGPIDFSHLFVTSSFDWTVKLWTTKHNKPLYSFEDNADYVYDVMWSPVHPALFACVDGMGRLDLWNLNSDTEVPTASVAIEGAYALNRVRWAQGGKEVAVGDSEGRIWIYDVGELAVPHNDEWTRFARTLVEIRANRADSEEEGAVELAA
modifications: phosphorylated by PKA (the paper names IC1-T59 as the sole PKA site)
Regarding B1, the binding result in experiment [2] was “binds”.

B2: bacterially expressed LIC1-T213D (natural protein, rat, UniProt Q9QXU8 1-523, looked up)
chain: MAAVGRVGSFGSSPPGLASTYASGPLANELASGSGGPAAGDDEDGQNLWSRILREVSTRSRSKLPTGKNVLLLGEDGAGKTSLIRRIQGIEEYKKGRGLEYLYLNVHDEDRDDQTRCNVWILDGDLYHKGLLKFSLDALSLRDTLVMLVVDMSKPWTALDSLQKWASVVREHVDKLKIPPEEMKEMEQKLIRDFQEYVEPGEDFPASPQRRADAAQEDRDDSVVLPLGADTLTHNLGLPVLVVCTKCDAISVLEKEHDYRDEHFDFIQSHIRKFCLQYGAALIYTSVKENKNIDLVYKYIVQKLYGFPYKIPAVVVEKDAVFIPAGWDNDKKIGILHENFQTLKIEDNFEDIITKPPVRKFVHEKEIMAEDDQVFLMKLQSLLAKQPPTAAGRPVDASPRVPGGSPRTPNRSVSSNVASVSPIPAGSKKIDPNMKAGATSEGVLANFFNSLLSKKTGSPGGPGVGGSPGGGAAGASTSLPPSAKKSGQKPVLSDVHAELDRITRKPASVSPTTPPSPTEGEAS
Turning to B2, in experiment [2], the binding result is listed as “binds”.

B3: bacterially expressed full-length LIC1 phosphorylated with PKA catalytic subunit (natural protein, rat, UniProt Q9QXU8 1-523, looked up)
chain: MAAVGRVGSFGSSPPGLASTYASGPLANELASGSGGPAAGDDEDGQNLWSRILREVSTRSRSKLPTGKNVLLLGEDGAGKTSLIRRIQGIEEYKKGRGLEYLYLNVHDEDRDDQTRCNVWILDGDLYHKGLLKFSLDALSLRDTLVMLVVDMSKPWTALDSLQKWASVVREHVDKLKIPPEEMKEMEQKLIRDFQEYVEPGEDFPASPQRRATAAQEDRDDSVVLPLGADTLTHNLGLPVLVVCTKCDAISVLEKEHDYRDEHFDFIQSHIRKFCLQYGAALIYTSVKENKNIDLVYKYIVQKLYGFPYKIPAVVVEKDAVFIPAGWDNDKKIGILHENFQTLKIEDNFEDIITKPPVRKFVHEKEIMAEDDQVFLMKLQSLLAKQPPTAAGRPVDASPRVPGGSPRTPNRSVSSNVASVSPIPAGSKKIDPNMKAGATSEGVLANFFNSLLSKKTGSPGGPGVGGSPGGGAAGASTSLPPSAKKSGQKPVLSDVHAELDRITRKPASVSPTTPPSPTEGEAS
modifications: phosphorylated by PKA; T213 identified as the major PKA site
Consider B3, for which, in experiment [2], the binding result was “binds”.
